Measured values published in the supplement of paper PMC12764529.

Experiment: folding stability dG unfold (combined trypsin and chymotrypsin); higher = more stable
Method: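 Folding stability of de novo designed mini-proteins (<80 aa, no Cys; designed by TrROS, TrMRF, ProteinMPNN and the joint model) was measured by cDNA display proteolysis with trypsin and chymotrypsin. Each protease was used at 11 concentrations in a threefold dilution series plus a no-protease condition. K50 was inferred by Bayesian fitting of sequencing counts, and dG unfold was derived against a sequence-predicted unfolded-state K50 (Tsuboyama et al. method). Sequences shown include variable-length N-terminal GS-type padding (SAGGSAGG...) inside a display construct carrying a PA tag. Rows were kept only if the AF2 dimer inter-PAE was >15, to exclude likely homo-oligomers.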

Folding stability dG unfold, < -1 kcal/mol:
SAGGSAGGSAEEEKTVVEEKVEVKVEVKLKAPPPPEVTVSVELDEETNELKITASAEALKKSAGGSAGGSAG [r3_186_TrROS_Hall], SAGGSAGGSAEEISPEGVATRTLPDGRTVELTQDPAKGTVTTTVYTPSGTPVSSSTTPVNPSAGGSAGGSAG [r3_447_JUSTAS], SAGGSAGGSAEELAKKLAEELGVKVEVEEKDGKLVVKIEKKKAKPKPKKVEKKKYYSEEELKSAGGSAGGSA [r18_27_TrROS_Hall], SAGGSAGGSAGDKPIKIFWNPEFPGRVYIKTPDKERPVPLNDLEELGIDEVVPMEEAMEQSAGGSAGGSAGG [r17_88_TrROS], SAGGSAGGSAGGAMPSDVLSTTTEPVAPTGSKTVSAPDAVVTVTLDPNTPVATTKTYGVSAGGSAGGSAGGS [r10_965_JUSTAS], SAGGSAGGSAGGEKTIFIPPDNPEKLADEAQKKGLTVEREPNSWLKVNGKKIRIIIMPPSAGGSAGGSAGGS [r10_930_TrROS], SAGGSAGGSAGGEPEPIPFRIKPHDEDGKKKGTFPINPLQKKGIPAEEFADKNGFEIEISAGGSAGGSAGGS [r10_153_TrROS], SAGGSAGGSAGGGAKPNQPVKVKIKYELLREEKELLPDGSVKTKKEVKVEIEGYEDADFKSAGGSAGGSAGG [r7_919_TrMRF], SAGGSAGGSAGGGFEITLPDKPIKVLEARFIPEKKLVEVLAEHPDGVLVRGVFPPELKLGSAGGSAGGSAGG [r7_427_TrMRF], SAGGSAGGSAGGGHMIYVPPSATLEEAEKLAKELGIEDAEIIPVPEGEPLFFTPEWKLVSAGGSAGGSAGGS [r10_1083_JUSTAS], SAGGSAGGSAGGGKNRPVIPITEGDKDEAKEFADTFQKEWRRQNGEPAQNVDIDIVPTPSAGGSAGGSAGGS [r10_1216_TrROS], SAGGSAGGSAGGGKVYVFRAPDALVLVPVEENPDTDEFTVTVDPGGDDPDIAKKLAEALSAGGSAGGSAGGS [r10_582_TrMRF], SAGGSAGGSAGGGMTVEEDPSSNIVTERIEYPDSIVTITRKRTPNPSWVTLATTTTPLGSAGGSAGGSAGGS [r10_840_JUSTAS], SAGGSAGGSAGGGPGLSVTTTVLVPKDPSTSVLTVPLPPSATVTAVTPETNTVTVRTASSAGGSAGGSAGGS [r10_247_JUSTAS], SAGGSAGGSAGGGPMVTRTIPRGVVVTKAELKDDKPVKYTVVKEEPVPVTVRALPEELLSAGGSAGGSAGGS [r10_492_JUSTAS], SAGGSAGGSAGGGSSMPLIPRKIETVEKPFRLPNGDVVIETTEIDTDADVEIPSVEVVLKSAGGSAGGSAGG [r7_213_JUSTAS], SAGGSAGGSAGGGVRIKVEYPNNGQPHEFPIDENWTAESIKDKLEDRGLPPNHKITKIEPSAGGSAGGSAGG [r7_70_TrROS], SAGGSAGGSAGGIYEKAVEFAKAKGGKDIPVKIKYPDGSVKTLNVDDLPDLKSENVEIVPSAGGSAGGSAGG [r7_863_TrMRF], SAGGSAGGSAGGKIEVDVETERHDGRPYYEVEIRHPDNGKPVEIPMPMNNPEEALKAAKSAGGSAGGSAGGS [r10_271_TrROS], SAGGSAGGSAGGKIEVEEDPANGMYRVEIQFPENGKPIEVWVRPGRTLEKAKDKAKELMKSAGGSAGGSAGG [r7_138_TrROS], SAGGSAGGSAGGLTEEEILKKLGLSPDVELLEMPREPERGVYYVKVKKGEGPEEFVVEESAGGSAGGSAGGS [r10_17_JUSTAS], SAGGSAGGSAGGMELPNLVPVETVPVGDSTVRLYELPGKPLRVTVTENGDNVTVELEEPPSAGGSAGGSAGG [r7_940_JUSTAS], SAGGSAGGSAGGMKVVFNIHRPDSDEVLTVDDMEKLKETSLEELAKKLEEENGYPVEVVLSAGGSAGGSAGG [r7_259_JUSTAS], SAGGSAGGSAGGMLPNPKTIKVPLKPGETKEKVKEEAEKKFPPGKITVTVSEDGTATVLVSAGGSAGGSAGG [r7_273_JUSTAS], SAGGSAGGSAGGMRISIHHPKNGNPRHIPIDDIRNLPGPYKIHVEGPNPELAKEFLEQFSAGGSAGGSAGGS [r10_419_TrROS], SAGGSAGGSAGGMTVKEIAEKLGLPPGLKVEDIPLDPPNGYFEIEITHDDGPHTYRIPISAGGSAGGSAGGS [r10_17_TrROS], SAGGSAGGSAGGMVSISVSEDPATGTYTVTATRTGAPRTVTVPVGASEAEARARVEAALSAGGSAGGSAGGS [r10_192_JUSTAS], SAGGSAGGSAGGNKIVIPFEELEEARENGDPHKARKLVRERGMDPEDVTIEIITPEALKESAGGSAGGSAGG [r7_7_TrROS], SAGGSAGGSAGGPERLVLASFIPGPRLLHVVEVSLDGVGASISPSVFSIHPDRPDEIEPVSAGGSAGGSAGG [r7_866_TrMRF], SAGGSAGGSAGGPIKIDVQVMPHDNEWYIMIRREYPYPDGKRQEREIMIPADNVKDLDDISAGGSAGGSAGG [r7_835_TrROS], SAGGSAGGSAGGPKIEIPMVHLHPNGTITVMRMKMEYDPNGKFEIKKMEMHTVPADDIKDSAGGSAGGSAGG [r7_521_TrROS], SAGGSAGGSAGGPNPRIIPLTFPVKDKEAVILLPPGVKPASIEVDPEDGRIRVNAVDPLSAGGSAGGSAGGS [r10_906_TrMRF], SAGGSAGGSAGGPPFQIHIRDKGEERTIPVDSPDDIKELLEEKGAEIKDVHPNSGTITVKSAGGSAGGSAGG [r7_726_TrROS], SAGGSAGGSAGGPPPEKAAAYLVKYRNPDGGPLGTRPVELPPDRPEVEHDPSFVSVEVASAGGSAGGSAGGS [r10_675_JUSTAS], SAGGSAGGSAGGPTVTYKPPSGNVRTVEVPASRPEVVAELKAAGGEVVVVDAETGEEVLLSAGGSAGGSAGG [r7_430_JUSTAS], SAGGSAGGSAGGQPITLPDANNGFKEVEIMPTPKKWRITAENPETGQKKEFPIEDPEAVSAGGSAGGSAGGS [r10_772_TrROS], SAGGSAGGSAGGRGVLLVFRLDGEVRPTPDGEPVLELTDLEVEEREVTVTRDADGVLHAGSAGGSAGGSAGG [r11_381_TrMRF], SAGGSAGGSAGGSGELELTVVSPLPDGTVKVTRYRVELPEDGLEITEVETEEVPPEEAGSAGGSAGGSAGGS [r4_389_TrMRF], SAGGSAGGSAGGSGELTMMMVEPNPDGRVKVRTFKIELPPGGLKIDEVEEKTIPPEDAKSAGGSAGGSAGGS [r4_389_TrROS], SAGGSAGGSAGGSGNFTIDPALLEEARAEAAAAGEALETIPLKVTRPGGETKTIDIKVGSAGGSAGGSAGGS [r4_367_JUSTAS], SAGGSAGGSAGGSGNGMKLVKKKEVVKEEGAVVKLPNGETIEVPPDETITVEIEEEVSLSAGGSAGGSAGGS [r4_26_JUSTAS]
